The values below come from patent publication EP4748858A1 (Nanjing Probio Biotech Co., Ltd., dated 2026).

Broadly, the EC50 is the concentration at which the effect is half-maximal. For orientation: Kd means a measure of binding affinity in units of concentration. As usually defined, the koff is the first-order rate constant of dissociation. A word on the kon: it is the rate constant with which the complex forms.

The target of test [1] is T1, mouse CD7 (ACROBiosystems, CD7-M52H3) (mouse, UniProt P50283 24-150).
T1 construct: Bought recombinant protein; also called Mouse CD7 protein
T1 sequence (looked up): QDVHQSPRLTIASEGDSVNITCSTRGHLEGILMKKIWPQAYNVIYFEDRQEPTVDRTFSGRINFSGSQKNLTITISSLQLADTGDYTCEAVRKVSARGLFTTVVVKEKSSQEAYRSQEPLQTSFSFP
Briefly: indirect ELISA, plate coated with 1 µg/ml mouse CD7. On the technique in general: An ELISA detects its analyte on a solid surface through an enzyme-linked reagent.

Test [2] concerns the target T2, recombinant protein of the human CD7 extracellular domain, CD7-His (human, UniProt P09564 26-180).
T2 construct: range 25-645; also called human CD7-His protein; recombinant human CD7; not shown: His protein tag
T2 sequence (looked up): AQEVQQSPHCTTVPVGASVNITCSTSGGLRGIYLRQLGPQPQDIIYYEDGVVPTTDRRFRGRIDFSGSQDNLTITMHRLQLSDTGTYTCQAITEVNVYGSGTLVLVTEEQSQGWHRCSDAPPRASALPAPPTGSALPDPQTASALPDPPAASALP
As to the kind of experiment: indirect ELISA, plate coated with 1 µg/ml human CD7, anti-human IgG Fc-HRP.

The target in test [3] is T2, recombinant protein of the human CD7 …. As to the kind of experiment: SPR Biacore T200, antibody captured via Fc, human CD7 as analyte. On the technique in general: SPR reads the build-up and loss of mass on a sensor chip optically.
The target in test [4] is T3, monkey CD7 (Sino Biological, 90993-H08H) (monkey).
T3 construct: Bought recombinant protein; also called Monkey CD7 protein
Briefly: indirect ELISA, plate coated with 1 µg/ml monkey CD7, anti-human IgG Fc-HRP.

B1: AHP19509 (Fc fusion)
chain: QVKLEESGGGLVQAGGSLRLSCAASGGTFNRYTMGWFRQAPGKEREFVAAISWSGGSTDYADSVKGRFTISRDNTKNTVYLQMNSLKPEDAAVYYCDTDRMPYRPVAAGILSWEANWGQGTQVTVSS
notes: Alpaca VHH expressed as fusion to human IgG1 Fc; also called AHP19509-VHH; not shown: human IgG1 Fc of expression vector pcDNA3.4-Fc (HuIgG1)
On to B1, for which, in test [1], the binding result is “no binding (tested: 8 µg/ml (about 100 nM))”. In addition, the EC50 in test [2] is 0.209 nM. Moreover, in test [3], the Kd was 0.0765 nM, the koff was found to be 2.3e-05 s⁻¹ and the kon amounted to 301000 M⁻¹ s⁻¹.

B2: AHP19494 (Fc fusion)
chain: QVKLEESGGGLVQAGGSLRLSCAAPGRTLSASIKAWFRQAPGKDREFAAAIRWSGDSTYYADSVKGRFTISRDNAKNTVDLQMNSLKPEDTAVYYCNAGGLLSNGYQPGSSWGQGTQVTVSS
notes: Alpaca VHH expressed as fusion to human IgG1 Fc; not shown: human IgG1 Fc of expression vector pcDNA3.4-Fc (HuIgG1)
Turning to B2, the binding result in test [1] was “no binding (tested: 8 µg/ml (about 100 nM))”. Also, in test [2], the concentration for a half-maximal effect (EC50) turned out to be 1.47 nM.

B3: AHP19487 (Fc fusion)
chain: DVQLVESGGGLVQPGGSLRLSCAFPGSAFSFYFMGWYRQAPGKQRELVGDITPGGTANYADSVKGRFTISRDSAKNTVYLQMNSLKPEDTAVYYCNADRRVTIRPDGYWGQGTQVTVSS
notes: as for B2
Consider B3, for which the binding result in test [1] is on record as “no binding (tested: 8 µg/ml (about 100 nM))”. The EC50 in test [2] was 0.173 nM.

B4: AHP19484 (Fc fusion)
chain: QVKLEESGGGLVQPGGSLRLSCVASGSSFHFAFMGWYRQAPGKQRELVADISPGNSTNYADPVKGRFVISRDNAKNTVYLQMNSLKPEDTAVYFCRDLRSWGAWGRGTQVTVSS
notes: Alpaca VHH expressed as fusion to human IgG1 Fc; also called AHP19484-VHH; not shown: human IgG1 Fc of expression vector pcDNA3.4-Fc (HuIgG1)
On to B4, for which the binding result in test [1] is “no binding (tested: 8 µg/ml (about 100 nM))”. Besides, the EC50 in test [4] amounted to 7.03 nM. Moreover, in test [2], the EC50 is 0.278 nM. In test [3], the Kd came out at 0.12 nM, the koff was 6.03e-05 s⁻¹ and the kon worked out at 502000 M⁻¹ s⁻¹.

B5: AHP19485 (Fc fusion)
chain: EVQLVESGGGLVQPGGSLRLSCASSERIFSIHAMGWYRQAPGKQRELVASITIGGSTHYADSVKGRFTISRDNAKNTVYLHMNSLKPEDTAVYYCNSMLLAGTVGGSWGQGTQVTVSS
notes: Alpaca VHH expressed as fusion to human IgG1 Fc; also called AHP19485-VHH; not shown: human IgG1 Fc of expression vector pcDNA3.4-Fc (HuIgG1)
On to B5, for which, in test [1], the binding result is on record as “no binding (tested: 8 µg/ml (about 100 nM))”. The EC50 in test [2] was determined as 0.168 nM. Moreover, in test [3], the Kd was 0.289 nM, the koff came to 7.73e-05 s⁻¹ and the kon came to 268000 M⁻¹ s⁻¹.
